Measured values as given in patent US20080044360A1 (COLLAGEN MEDICAL, published 2008).
Bridge positions count the residues as written; N and C are the ends. Square brackets hold non-standard residues; d marks the D form. Primed or numbered codes have the meaning given here. Side chains are listed from the residue outwards. Ends that are not written are not given here. * marks the point of attachment. Tyr(3-Cl) = N[C@@H](Cc1ccc(O)c(Cl)c1)C(=O)O; Phe(4-NH2) = Nc1ccc(C[C@H](N)C(=O)O)cc1; Phe(4-F) = N[C@@H](Cc1ccc(F)cc1)C(=O)O; hTyr = N[C@@H](CCc1ccc(O)cc1)C(=O)O; 1,4 AMB(Gd^T) = not defined here; Gd^T = not defined here; Gd^T″ = GdDTPA-thiourea; Cbz = O=C(OCc1ccccc1)*

Columns and labels:
[1] = target: T1, rat collagen, acid soluble, type I, rat tail (Upstate 08-115) (rat, UniProt P02454 152-1207; P02466 86-1125); assay: dried collagen assay
T1 construct: tissue extract, gelled and dried in wells; also called dried rat collagen

[2] = target: T2, human collagen type I, acid soluble, extracted from placenta (Sigma C7774) (human, UniProt P02452 162-1218; P08123 80-1119); assay: dried collagen assay
T2 construct: tissue extract, gelled and dried in wells; also called dried human collagen; h-Collagen
T2 sequence (P02452 162-1218 limits assumed, chain 1 of 2): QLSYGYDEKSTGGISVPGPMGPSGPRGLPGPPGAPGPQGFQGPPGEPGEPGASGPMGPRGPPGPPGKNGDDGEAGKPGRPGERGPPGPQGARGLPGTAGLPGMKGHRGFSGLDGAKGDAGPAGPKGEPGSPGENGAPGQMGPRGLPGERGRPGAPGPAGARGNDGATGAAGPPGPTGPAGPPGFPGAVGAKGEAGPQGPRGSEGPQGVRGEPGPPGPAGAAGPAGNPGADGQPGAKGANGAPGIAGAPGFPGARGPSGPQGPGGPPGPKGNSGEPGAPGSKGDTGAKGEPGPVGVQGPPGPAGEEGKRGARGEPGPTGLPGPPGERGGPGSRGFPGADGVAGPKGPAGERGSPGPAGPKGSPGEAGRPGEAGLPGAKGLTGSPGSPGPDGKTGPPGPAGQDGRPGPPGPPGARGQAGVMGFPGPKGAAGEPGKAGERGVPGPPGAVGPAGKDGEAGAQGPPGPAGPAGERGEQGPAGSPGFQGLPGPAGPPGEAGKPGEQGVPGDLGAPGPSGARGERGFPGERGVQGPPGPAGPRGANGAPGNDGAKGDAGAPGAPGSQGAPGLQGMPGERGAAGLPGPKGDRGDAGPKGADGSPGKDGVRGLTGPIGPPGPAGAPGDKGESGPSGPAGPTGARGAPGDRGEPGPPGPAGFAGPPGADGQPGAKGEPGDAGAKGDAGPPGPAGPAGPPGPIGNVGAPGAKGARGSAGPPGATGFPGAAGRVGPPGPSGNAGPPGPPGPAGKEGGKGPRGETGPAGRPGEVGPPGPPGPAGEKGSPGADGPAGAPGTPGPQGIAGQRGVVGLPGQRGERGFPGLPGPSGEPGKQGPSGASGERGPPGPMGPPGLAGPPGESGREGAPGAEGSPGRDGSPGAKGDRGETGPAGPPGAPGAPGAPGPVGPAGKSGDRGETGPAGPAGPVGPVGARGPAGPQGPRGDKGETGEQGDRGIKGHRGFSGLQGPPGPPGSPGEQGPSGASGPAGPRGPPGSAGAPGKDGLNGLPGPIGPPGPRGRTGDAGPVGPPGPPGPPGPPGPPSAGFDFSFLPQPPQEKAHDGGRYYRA
T2 sequence (P08123 80-1119 limits assumed, chain 2 of 2): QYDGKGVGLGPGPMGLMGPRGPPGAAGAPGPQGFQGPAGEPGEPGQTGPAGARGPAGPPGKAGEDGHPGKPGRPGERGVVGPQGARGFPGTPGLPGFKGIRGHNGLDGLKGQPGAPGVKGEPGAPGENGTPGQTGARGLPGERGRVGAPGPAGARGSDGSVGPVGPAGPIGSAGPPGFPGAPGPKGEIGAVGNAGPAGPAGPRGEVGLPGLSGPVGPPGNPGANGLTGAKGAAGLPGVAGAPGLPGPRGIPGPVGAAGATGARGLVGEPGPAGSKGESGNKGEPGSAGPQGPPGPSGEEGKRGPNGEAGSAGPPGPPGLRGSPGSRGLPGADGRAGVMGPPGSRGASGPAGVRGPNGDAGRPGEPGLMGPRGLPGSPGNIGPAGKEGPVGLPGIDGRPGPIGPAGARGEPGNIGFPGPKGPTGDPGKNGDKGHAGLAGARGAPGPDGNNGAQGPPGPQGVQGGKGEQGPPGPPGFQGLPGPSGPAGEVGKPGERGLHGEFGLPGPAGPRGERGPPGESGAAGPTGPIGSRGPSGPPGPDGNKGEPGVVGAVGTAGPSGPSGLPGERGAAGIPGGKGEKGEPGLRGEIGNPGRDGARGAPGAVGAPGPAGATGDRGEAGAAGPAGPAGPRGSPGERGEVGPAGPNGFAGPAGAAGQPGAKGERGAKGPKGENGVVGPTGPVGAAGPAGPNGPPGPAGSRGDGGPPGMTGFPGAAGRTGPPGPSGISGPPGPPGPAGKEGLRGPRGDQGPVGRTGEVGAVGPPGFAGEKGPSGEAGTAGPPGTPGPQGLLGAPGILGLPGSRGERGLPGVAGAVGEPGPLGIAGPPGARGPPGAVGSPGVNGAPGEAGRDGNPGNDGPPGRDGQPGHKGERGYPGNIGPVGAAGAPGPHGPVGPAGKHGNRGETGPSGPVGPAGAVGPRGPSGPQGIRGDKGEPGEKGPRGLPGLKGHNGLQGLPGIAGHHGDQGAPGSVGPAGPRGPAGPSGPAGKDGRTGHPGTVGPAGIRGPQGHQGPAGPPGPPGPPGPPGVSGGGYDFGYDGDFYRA

T1 sequence (P02454 152-1207, chain 1 of 2): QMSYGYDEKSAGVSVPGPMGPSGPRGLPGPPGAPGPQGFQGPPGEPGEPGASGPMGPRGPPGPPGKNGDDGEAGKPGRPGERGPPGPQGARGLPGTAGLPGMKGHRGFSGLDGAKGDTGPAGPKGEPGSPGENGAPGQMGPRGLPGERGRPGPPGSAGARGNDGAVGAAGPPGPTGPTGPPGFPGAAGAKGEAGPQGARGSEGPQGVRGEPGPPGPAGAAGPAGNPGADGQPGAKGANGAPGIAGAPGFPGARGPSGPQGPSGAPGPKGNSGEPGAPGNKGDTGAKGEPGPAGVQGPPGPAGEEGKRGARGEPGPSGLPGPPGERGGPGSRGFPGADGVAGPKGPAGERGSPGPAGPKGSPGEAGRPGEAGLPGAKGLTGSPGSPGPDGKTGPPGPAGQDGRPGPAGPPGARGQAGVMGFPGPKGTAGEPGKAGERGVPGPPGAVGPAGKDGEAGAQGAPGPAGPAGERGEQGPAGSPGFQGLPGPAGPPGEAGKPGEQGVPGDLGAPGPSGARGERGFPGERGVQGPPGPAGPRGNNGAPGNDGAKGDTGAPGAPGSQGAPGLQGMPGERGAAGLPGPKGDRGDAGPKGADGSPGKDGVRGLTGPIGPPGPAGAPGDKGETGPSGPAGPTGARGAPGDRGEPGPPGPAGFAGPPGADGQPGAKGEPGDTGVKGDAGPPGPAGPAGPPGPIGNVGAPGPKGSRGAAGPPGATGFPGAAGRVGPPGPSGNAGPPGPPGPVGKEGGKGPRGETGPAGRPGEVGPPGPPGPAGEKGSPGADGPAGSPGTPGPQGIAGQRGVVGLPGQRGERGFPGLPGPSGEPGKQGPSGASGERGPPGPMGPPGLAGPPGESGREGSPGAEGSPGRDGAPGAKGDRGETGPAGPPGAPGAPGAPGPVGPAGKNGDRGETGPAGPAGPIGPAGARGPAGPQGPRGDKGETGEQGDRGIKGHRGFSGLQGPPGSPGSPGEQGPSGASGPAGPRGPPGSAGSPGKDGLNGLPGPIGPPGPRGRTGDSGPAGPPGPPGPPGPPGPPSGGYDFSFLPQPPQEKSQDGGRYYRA
T1 sequence (P02466 86-1125, chain 2 of 2): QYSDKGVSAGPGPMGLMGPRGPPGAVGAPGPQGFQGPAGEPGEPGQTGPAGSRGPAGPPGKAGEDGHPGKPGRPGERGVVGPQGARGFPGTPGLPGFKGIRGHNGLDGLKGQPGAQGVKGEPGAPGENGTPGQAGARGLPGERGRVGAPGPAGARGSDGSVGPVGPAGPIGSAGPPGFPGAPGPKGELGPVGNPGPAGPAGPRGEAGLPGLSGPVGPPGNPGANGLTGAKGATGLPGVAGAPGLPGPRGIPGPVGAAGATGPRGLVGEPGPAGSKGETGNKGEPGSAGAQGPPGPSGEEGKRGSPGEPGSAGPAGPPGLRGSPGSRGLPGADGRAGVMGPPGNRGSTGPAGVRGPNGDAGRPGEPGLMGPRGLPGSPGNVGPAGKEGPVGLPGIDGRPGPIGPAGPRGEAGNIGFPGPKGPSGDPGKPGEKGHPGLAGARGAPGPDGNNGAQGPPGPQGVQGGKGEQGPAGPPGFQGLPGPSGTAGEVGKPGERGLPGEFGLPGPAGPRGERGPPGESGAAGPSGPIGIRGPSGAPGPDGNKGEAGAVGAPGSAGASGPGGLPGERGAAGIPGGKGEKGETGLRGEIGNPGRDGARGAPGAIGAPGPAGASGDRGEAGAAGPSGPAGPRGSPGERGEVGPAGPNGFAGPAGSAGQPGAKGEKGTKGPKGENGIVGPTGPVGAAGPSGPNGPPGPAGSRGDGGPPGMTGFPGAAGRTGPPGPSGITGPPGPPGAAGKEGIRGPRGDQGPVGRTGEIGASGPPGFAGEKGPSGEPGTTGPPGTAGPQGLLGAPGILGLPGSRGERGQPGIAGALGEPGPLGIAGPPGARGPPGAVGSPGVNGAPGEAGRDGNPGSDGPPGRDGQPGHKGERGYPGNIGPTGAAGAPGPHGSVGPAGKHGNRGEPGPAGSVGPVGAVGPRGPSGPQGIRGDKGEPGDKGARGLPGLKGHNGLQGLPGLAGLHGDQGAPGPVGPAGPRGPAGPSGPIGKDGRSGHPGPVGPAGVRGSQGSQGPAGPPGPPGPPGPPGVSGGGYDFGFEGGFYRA

| Binder | % bound [1] [%] | % bound [2] [%] |
| --- | --- | --- |
| {Gd^T″}-GQWHCTTYFPHHYCLYG-{1,4 AMB(Gd^T)} (disulfide 5-14 (inferred); reading uncertain) [Compound ID 816] | 48 | 48 |
| {Gd^T″}-GQWHCTTK(Gd^T″)FPHHYCLYG (disulfide 5-14 (inferred); not fully specified (C-terminus)) [Compound ID 813] | 55 | 65 |
| {Gd^T″}-GAWHCTTYFPHH[dY]CLYG (disulfide 5-14 (inferred); not fully specified (C-terminus)) [Compound ID 915] | 0 | 15 |
| {Gd^T″}-GAWHCTTLFPHH[dY]CLYG (disulfide 5-14 (inferred); not fully specified (C-terminus)) [Compound ID 908] | 0 | 20 |
| {Gd^T″}-GQWHCT[dY]RFPHHYCLYG (disulfide 5-14 (inferred); not fully specified (C-terminus)) [Compound ID 899] | 14 | 20 |
| GQWHCYTLFPHHYCLYG (disulfide 5-14 (inferred); not fully specified (N-terminus)) [Compound ID 920] | 91 | 67 |
| {Gd^T″}-GQWHCTTRFPHH[hTyr]CLYG (disulfide 5-14 (inferred)) [Compound ID 933] | 24 | 36 |
| {Gd^T″}-GK([Gly-Gd^T″])WHCTTLFPHHYCLYG (disulfide 5-14 (inferred)) [Compound ID 930] | 42 | 31 |
| {Gd^T″}-GQWHCTTLFPHNYCLYG (disulfide 5-14 (inferred)) [Compound ID 924] | 1 | 24 |
| {Gd^T″}-GQWSCTTRFPHHYCLYG (disulfide 5-14 (inferred)) [Compound ID 870] | 28 | 30 |
| {Gd^T}-GQWHCTTAFPHHYCLYG (disulfide 5-14 (inferred); not fully specified (C-terminus); reading uncertain) [Compound ID 853] | 57 | 66 |
| {Gd^T″}-GQWHCTTLFPNHYCLYG (disulfide 5-14 (inferred)) [Compound ID 923] | 10 | 28 |
| {Gd^T}-GQWHCTTRFPHHYCAYG (disulfide 5-14 (inferred); not fully specified (C-terminus); reading uncertain) [Compound ID 855] | 15 | 27 |
| {Gd^T″}-GQWNCTTLFPHHYCLYG (disulfide 5-14 (inferred)) [Compound ID 922] | 58 | 68 |
| {Gd^T″}-GQWHCATRFPHHYCLYG (disulfide 5-14 (inferred)) [Compound ID 877] | 41 | 58 |
| {Gd^T″}-GQWHCTYLFPHHYCLYG (disulfide 5-14 (inferred)) [Compound ID 921] | 35 | 68 |
| Cbz-GQWHCTTK(Gd^T″)FPHHYCLYG (disulfide 5-14 (inferred)) [Compound ID 926] | 87 | 81 |
| {Gd^T}-GQWHCTTRFPHH[dY]CLYG (disulfide 5-14 (inferred); not fully specified (C-terminus); reading uncertain) [Compound ID 864] | 50 | 64 |
| {Gd^T}-GQWHCTTRFPAHYCLYG (disulfide 5-14 (inferred); not fully specified (C-terminus); reading uncertain) [Compound ID 865] | 17 | 30 |
| {Gd^T}-GQWHCTTDFPHHYCLYG (disulfide 5-14 (inferred); not fully specified (C-terminus); reading uncertain) [Compound ID 851] | 41 | 50 |

| Binder | % bound [1] [%] | % bound [2] [%] |
| --- | --- | --- |
| {Gd^T″}-GQWHCT[dT]RFPHHYCLYG (disulfide 5-14 (inferred)) [Compound ID 879] | 0 | 33 |
| {Gd^T″}-GQWHCTTDFPHHYCLFG (disulfide 5-14 (inferred)) [Compound ID 890] | 15 | 38 |
| {Gd^T″}-GQWHCTT[Phe(4-F)]FPHHYCLYG (disulfide 5-14 (inferred)) [Compound ID 929] | 34 | 27 |
| {Gd^T″}-GQWHCTTRFPHH[hTyr(Me)]CLYG (disulfide 5-14 (inferred)) [Compound ID 934] | 14 | 21 |
| {Gd^T″}-GQWHCTTLFPHHYCVYG (disulfide 5-14 (inferred)) [Compound ID 928] | 80 | 73 |
| {Gd^T″}-GQWHCTTRFPHHYCK(Gd^T″)YG (disulfide 5-14 (inferred); not fully specified (C-terminus)) [Compound ID 815] | 59 | 66 |
| {Gd^T″}-GQWHCTTRFPHHYCFYG (disulfide 5-14 (inferred)) [Compound ID 931] | 83 | 70 |
| {Gd^T″}-GQWHCTTIFPHH[dY]CLYG (disulfide 5-14 (inferred); not fully specified (C-terminus)) [Compound ID 917] | 0 | 12 |
| {Gd^T″}-GQWACTTRFPHHYCLYG (disulfide 5-14 (inferred)) [Compound ID 876] | 26 | 48 |
| {Gd^T″}-GQWHCTTDFPHHYCL[Tyr(3-Cl)]G (disulfide 5-14 (inferred)) [Compound ID 892] | 56 | 63 |
| {Gd^T″}-K(Gd^T″)K(Gd^T″)WHCYTYFPHHYCVYG (disulfide 5-14 (inferred); not fully specified (C-terminus)) [Compound ID 801] | 77 | 81 |
| {Gd^T″}-GSWHCTTLFPHH[dY]CLYG (disulfide 5-14 (inferred); not fully specified (C-terminus)) [Compound ID 911] | 0 | 15 |
| {Gd^T″}-GDWHCTTLFPHH[dY]CLYG (disulfide 5-14 (inferred); not fully specified (C-terminus)) [Compound ID 910] | 0 | 13 |
| {Gd^T″}-GQWHCTTD[Phe(4-NH2)]PHHYCLYG (disulfide 5-14 (inferred)) [Compound ID 884] | 15 | 24 |
| {Gd^T}-G[dQ]WHCTTRFPHHYCLYG (disulfide 5-14 (inferred); not fully specified (C-terminus); reading uncertain) [Compound ID 866] | 38 | 60 |
| {Gd^T}-GQWHCTTRYPHHYCLYG (disulfide 5-14 (inferred); not fully specified (C-terminus); reading uncertain) [Compound ID 859] | 38 | 47 |
| {Gd^T″}-GQWHCTTRFPSHYCLYG (disulfide 5-14 (inferred)) [Compound ID 880] | 0 | 30 |
| {Gd^T″}-GQWHCTTLFPHHYCIYG (disulfide 5-14 (inferred)) [Compound ID 927] | 63 | 64 |
| {Gd^T}-GAWHCTTRFPHHYCLYG (disulfide 5-14 (inferred); not fully specified (C-terminus); reading uncertain) [Compound ID 857] | 69 | 67 |
